From publication PMC3527935

Legend:
[1] = target: soluble LDL receptor ectodomain (UniProt P01130); assay: ELISA
[2] = target: soluble LDL receptor ectodomain (UniProt P01130); assay: BLI

soluble LDL receptor ectodomain, sequence (P01130 22-788): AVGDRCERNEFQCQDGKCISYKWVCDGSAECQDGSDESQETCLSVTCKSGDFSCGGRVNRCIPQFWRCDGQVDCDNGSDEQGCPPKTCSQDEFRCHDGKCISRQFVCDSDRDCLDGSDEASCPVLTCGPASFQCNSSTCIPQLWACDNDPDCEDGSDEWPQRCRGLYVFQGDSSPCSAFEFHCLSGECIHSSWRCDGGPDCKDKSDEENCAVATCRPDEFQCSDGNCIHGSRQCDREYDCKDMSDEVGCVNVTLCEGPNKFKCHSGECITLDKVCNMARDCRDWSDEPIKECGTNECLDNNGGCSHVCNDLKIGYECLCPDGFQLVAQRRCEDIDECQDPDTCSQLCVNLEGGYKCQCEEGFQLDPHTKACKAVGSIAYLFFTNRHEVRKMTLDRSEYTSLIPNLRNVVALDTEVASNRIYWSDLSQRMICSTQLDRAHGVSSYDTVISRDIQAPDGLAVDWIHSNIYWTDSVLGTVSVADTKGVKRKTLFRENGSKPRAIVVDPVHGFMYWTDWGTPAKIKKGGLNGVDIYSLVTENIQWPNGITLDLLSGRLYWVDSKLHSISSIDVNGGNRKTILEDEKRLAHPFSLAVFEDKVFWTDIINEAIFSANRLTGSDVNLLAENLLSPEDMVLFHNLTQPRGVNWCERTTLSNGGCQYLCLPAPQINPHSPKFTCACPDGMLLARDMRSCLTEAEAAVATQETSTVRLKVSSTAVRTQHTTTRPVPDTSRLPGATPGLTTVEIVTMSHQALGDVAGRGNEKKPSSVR

| Substance | affinity loss against intact PCSK9 (IC50 intact/IC50 cleaved), fold [1] [fold] | Kd [2] [nM] | koff [2] [s⁻¹] | kon [2] [M⁻¹ s⁻¹] |
| --- | --- | --- | --- | --- |
| purified hepsin-cleaved PCSK9 (from UniProt Q8NBP7) (natural protein) | 1.4 | 268 | 0.00858 | 32000 |
| purified furin-cleaved PCSK9 (from UniProt Q8NBP7) (natural protein) | 1.1 | 356 | 0.0138 | 39000 |
